Ka data for one molecule are collected here from patent publication US20170029474A1 (OSAKA UNIVERSITY, published 2017).

Read-outs that look alike come from different tables or passages of the source.

For assay [1], the target named is T1, CRM197 (Corynebacterium diphtheriae, UniProt P00587 26-560). Kind of assay: SPR, Biacore T200, His-tagged HB-EGF captured on NTA chip. Background: Surface plasmon resonance follows binding to a sensor surface in real time, without labels.
Assay [2] has as its target T1, CRM197. The description is as above. This is another data set of the same source.

B1: C-terminal His-tagged HB-EGF lacking the heparin-binding domain (ligand)
chain: DLQEADLDLLRVTLSSKPQALATPNKEEHGDPCLRKYKDFCIHGECKYVKELRAPSCICHPGYHGERCHGLSLP
notes: Captured on a Ni2+ NTA sensor chip for Biacore; also called C-terminal His-tagged recombinant HB-EGF; Δ••-EGF-His
Regarding B1, the Ka with CRM197 [1] turned out to be 9.22e+08 M⁻¹; in the assay with CRM197 [2], 9.8e+08 M⁻¹.
